This note sets out measurements from the nanobody polyreactivity screen of Harvey et al. (2022).

A short description of the series: yeast display, Sf9 membrane polyspecificity reagent, FACS + sequencing; frameworks hold sequencing errors. In short, it runs like this:
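Synthetic nanobody libraries on Saccharomyces cerevisiae BJ5465 were galactose-induced for 36–48 hours, stained 1 hour at 4 °C with 10% biotinylated, detergent-solubilized Sf9 membrane reagent and enriched on streptavidin microbeads. FACS then separated cells into low and high (top ~1%) gates by anti-HA (expression) and streptavidin (reagent binding) fluorescence. Genes were colony-PCR amplified, MiSeq 2 × 250 sequenced and CDR-length filtered. A clone's polyreactivity label is that of its gate of origin.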
With “QVQLVESGGGLVQAGCSLRLSSAASGFTFGYYGMGWYRQAPGKERELVAAISQSSTDTYYADSVKGRFTISRDNAKNTVYLQMNSLKPEDTPVYYCAAHPTDSEYDDYEYWGQGTQVTVSS”, the “polyreactivity (PSR sort gate)” value is listed as “low polyreactivity”.

“QVQLVESGGGLVQAGCSLRLSWAASGNIFKGYAMGWSRQAPGKERELVAAISKSGGSTYYADSVKGRFTISRDNAKNTVYLQMNSLKPEDTAVYYCNTYTYAGYNFWGQGTQVTVSS”: the “polyreactivity (PSR sort gate)” value is “high polyreactivity”.

Turning to “QVQLVESGGGLVQAGDSLRLSCGASGRTFYPYAMGWYRQAPGKERELVAAITWSGGSTYYADSVKGRFTISRDNAKNTVYLQMNSLKPEDTAVYFCNAAELTYDLYDYCGQGTQVTVSS”, the “polyreactivity (PSR sort gate)” value is recorded as “low polyreactivity”.

Consider “QVQLVESGGGLVQAGGCLRLSCAASGRIFTTNPMGWYRPAPGKERELVARITYSGTSTYYADSVKGRFTISRDNAMNTVYLQMNSLKPEDTAVYYCAAKVWWRKYQLLDYYYWGQGTQVTVSS”, for which the “polyreactivity (PSR sort gate)” value was “high polyreactivity”.

On to “QVQLVESGGGLVQAGGCLRLSCAASGRILYYYAMGWYRQAPGKERELVAAINSSGGSTYYADSVKGRFTISRDNAKNTVYLQMNSLKPEDTAVFYCAALRGNVLWYPPSYFRYDYWGQGTQVTVSS”, for which the “polyreactivity (PSR sort gate)” value is listed as “high polyreactivity”.

Regarding “QVQLVESGGGLVQAGGCLRLSCAASGRTFPRYAMGWYIQAPGKVRELVAVISFSGDSTSYADSVKGRFTISRDTAKNTVYIQMNSRKPEDTAVYYCIADYKSTVFRYSGSRNYWGQGTQVTVSS”, the “polyreactivity (PSR sort gate)” value is “low polyreactivity”.

As to “QVQLVESGGGLVQAGGCLRLSCAASGSIFCVYVMGWYRQEPVKERELVAAITRGASTNYADSVKGRFTISRDNAKNTVYLQMNSLKPEDTAVYYCAARQVSVSGHQYGYWGQGTQVTVSS”, the “polyreactivity (PSR sort gate)” value was “low polyreactivity”.

Take “QVQLVESGGGLVQAGGCLRLSCAASGSIFDYYTMGWYREAPGNEREFVAGISDSGGSTTYADSVKGRFTISRDNAKNTVYLQMNSLKPEDTAVYYCNAEYVGWFYKYDYWGQGTQVTVSS”: the “polyreactivity (PSR sort gate)” value is reported as “high polyreactivity”.

“QVQLVESGGGLVQAGGCLRLSCAASGSTFYGYAMGWYRQAPGKERELVAAISRIGSSTYYADSVKGRFTISRDNAKITVYLQMNSLKPEDTAVYYCAADTWKVFGVDYWGQGTQVSVSS”: the “polyreactivity (PSR sort gate)” value was “high polyreactivity”.

In the case of “QVQLVESGGGLVQAGGCLRLSGAASVYTYRKYAMGWSRQAPGNERELVAAISASGGSTYYADSVKGRFTISRDKAKNTVYLPMNSLKPEDTAVYYCAKVPVTVYSRPFDYWGQGTQVTVSS”, the “polyreactivity (PSR sort gate)” value is on record as “high polyreactivity”.

“QVQLVESGGGLVQAGGGLRLSCAASGTFKRNAMGWYRQAPGKERELVATITRTGSTTYADSVKGRFTISRDNAKNTVYLQMNSLKPEDTAVYYCAAGYPPEDPEDYWGQGTQVTVSS”: the “polyreactivity (PSR sort gate)” value is on record as “low polyreactivity”.

On to “QVQLVESGGGLVQAGGILLLSCAASGRTFRVNTMGWYRQAPGTESELVAAISYSGASTYYADSVKGRFTISRDNAKNTVYLQMNSLKPEDTAVYYCAAAVGVALNDYWGQGTQVTVSS”, for which the “polyreactivity (PSR sort gate)” value was “high polyreactivity”.

“QVQLVESGGGLVQAGGILRISCAASGFIFWKNAMGWYRQAPGKERELVAAISRGGSTYYADSVKGRFTISRDNAKKTVYLQMNSLKPEDTAFYYCNKVGGATDKYLYYYWGQATQVTVSS”: the “polyreactivity (PSR sort gate)” value is “high polyreactivity”.

Consider “QVQLVESGGGLVQAGGILRLICAASGLTFYRYAMGWYRQAPGKERELVAAINSRGSTYADSVKGRFTISRDNAKNTVYFQMNSLKPEDSAVYYCAARGRYRLYGYWGQVTQVTVSS”, for which the “polyreactivity (PSR sort gate)” value is recorded as “high polyreactivity”.

On to “QVQLVESGGGLVQAGGILRLICAASGSTFPYNAMGWYRQAPGKERELVAAISSGGSTYYADSVNGRFTISRDNAKNTVYLELNSQKPEDTAVYYCAASLGKYIRSLGYGYWGQGTQVTVSS”, for which the “polyreactivity (PSR sort gate)” value is given as “high polyreactivity”.

For the sequence “QVQLVESGGGLVQAGGILRLSCAASGFIFALNAMGWYRQAPGKERELVATIDSTSGSTYYADSVKGRFTISRDNAKNTVYLQMNSLKPEDTAVYYCAVVHAQSAPMDYWGQGTQVTVSS”, the “polyreactivity (PSR sort gate)” value is “low polyreactivity”.

For the sequence “QVQLVESGGGLVQAGGILRLSCAASGFIFKSYAMGWYRQAPGKERELVAGITRRGGSTYYADSVKGRFTISRDNAKNTVYLQMNILKPEDTAVYYCNAGRKTADYDFLGQGTQVTVSS”, the “polyreactivity (PSR sort gate)” value is on record as “high polyreactivity”.

On to “QVQLVESGGGLVQAGGILRLSCAASGFNFSSYAMAWYRQAPGKERELVAAISGSGGTTYYADSVKGRFTISRDNANNTVYVLMNSLKPEDTAVYYCATRRGLVITKYGYDYWGQGTQVTVSS”, for which the “polyreactivity (PSR sort gate)” value is recorded as “high polyreactivity”.

For “QVQLVESGGGLVQAGGILRLSCAASGFTFYRNAMGWYRQAPGKERELVAAISIRSGRTYYADSLKGRFTISRDNAKNSVYLQMNSLKPEDTAVYYCNKVRLPRDPYNYWGQGTQVTVSS”, the “polyreactivity (PSR sort gate)” value is reported as “high polyreactivity”.

“QVQLVESGGGLVQAGGILRLSCAASGGIFSVYAMGWYRQAPGKERELVASITVSGGSTSYADSVKGRFTISRDNAKNTVYLQMNCLKPEDTAVYYCAADLLRYFGYYDYDSWGQGTQVTVSS”: the “polyreactivity (PSR sort gate)” value is recorded as “low polyreactivity”.

Consider “QVQLVESGGGLVQAGGILRLSCAASGITFKPYGMGWYRQAHGKESELVADITSGGITYYADSVKGRFTISRDNAKNTVYLQMNSLIAEDTAVYFCATGDLFVYYWGYVVRLYDFWGQGTQVTVSS”, for which the “polyreactivity (PSR sort gate)” value is recorded as “low polyreactivity”.

For “QVQLVESGGGLVQAGGILRLSCAASGLTFNYYDMGWYRQAPGKERELVAAISRSGTNTSYADSVKGRFTISRDNAKNTVYLQMNSLKPEDTAVYYCNSAGVYLAAGPYTANFNYNYWGQGTQVTVSS”, the “polyreactivity (PSR sort gate)” value is “low polyreactivity”.

Turning to “QVQLVESGGGLVQAGGILRLSCAASGNIFPINAMGWYRQAPGKEREFVAAITRSGSRTYYADSVKGRFTISRDNAKNTVYLQMNSLKKEDTAVYYCADRGNSTPVYSRYGYWGQGTQVTVSS”, the “polyreactivity (PSR sort gate)” value is given as “low polyreactivity”.

With “QVQLVESGGGLVQAGGILRLSCAASGRIFAYYAMGWSRQAPGKERELVAAISGGGGSTYYADSVKGRFTISRDNAKNTVYLQMNSLKPEDTAVYYCAAKSSRYDYYYWGQGTQVTVSS”, the “polyreactivity (PSR sort gate)” value is “high polyreactivity”.

On to “QVQLVESGGGLVQAGGILRLSCAASGRIFKYNAMGWYRQAPGKERELVAVITSGGSTYYADSVKGRFTISRDNAKNTVYLQMNSLKPEDTAVYYCAKKYYKVHKFDYCGQGTQVTVSS”, for which the “polyreactivity (PSR sort gate)” value is recorded as “low polyreactivity”.

For the sequence “QVQLVESGGGLVQAGGILRLSCAASGRIFRGYAMGWYIQAPAKERELVASIDWNGGRTYYADSEKGRFTISRDNAKNTVYLQMNSLKPEDTAVYYCAVLPYRTLYNYYYWGQGTQVTVSS”, the “polyreactivity (PSR sort gate)” value is “high polyreactivity”.

In the case of “QVQLVESGGGLVQAGGILRLSCAASGRIFRYYAMGWYRQAPGKERELVAGITRGGTTNYADSVKGRFTISRDNAKNTVYLQMNSLKPEDTAVYYCAAETRRGIIGYDYWGQGTKVTVSS”, the “polyreactivity (PSR sort gate)” value is “high polyreactivity”.

Regarding “QVQLVESGGGLVQAGGILRLSCAASGRIFSSYSMGWYRQAPGKESELVAAISRSGARTYYADSVKGRFTISRDYAKNTVYLQMNSLKPEDTAVYYCAAVTVAGYDYWGQGTQVTVSS”, the “polyreactivity (PSR sort gate)” value is “high polyreactivity”.

Regarding “QVQLVESGGGLVQAGGILRLSCAASGRIFTPYTMGWYRQAPGKERELVATITWSGGSTYYADSVKGRFTISRDNAKNTVYLQMNSLKPEDTAVYYCAARPIYVWAEYDYWGQGTQVTVSS”, the “polyreactivity (PSR sort gate)” value was “low polyreactivity”.

Consider “QVQLVESGGGLVQAGGILRLSCAASGRIFYNYAMGWYRQAPGKERELGAAISGSGGSTYYADSVKGRFTISRDNAKNTVYLQMNSLKPEDTAVYYCSTSGPQYDSRNFDYWGQGTQVTVSS”, for which the “polyreactivity (PSR sort gate)” value is recorded as “low polyreactivity”.

Regarding “QVQLVESGGGLVQAGGILRLSCAASGRIINIYAMGWYRQAPGKEREMVAAISGSGGRTSYADSVKGRFTFSRDNAKNTVYLQMNILKPEDTAVYYCAADYSYYTSFRYDYWGQGTQVTVSS”, the “polyreactivity (PSR sort gate)” value was “low polyreactivity”.

For the sequence “QVQLVESGGGLVQAGGILRLSCAASGRILVSYAMGWYRQAPGKERELVAAISRSGGSTYYADSVKGRFTISRDNAKNTVYLQMNSLKPEDTAVYYCNVYRFSRYDYWGQGTQVTVSS”, the “polyreactivity (PSR sort gate)” value is given as “high polyreactivity”.

“QVQLVESGGGLVQAGGILRLSCAASGRTFYINGMGWYRQAPGKEREFVASITWRGGRTYYADSVKGRFTISRDNAKNTVYLQMNSLKPEDTAVYYCIAVGLGGRAPSRWYTHYYCGQGTQVTVSS”: the “polyreactivity (PSR sort gate)” value is reported as “high polyreactivity”.

Turning to “QVQLVESGGGLVQAGGILRLSCAASGRTLSKNAMGWYRQAPGKERELVATISSVGRTNYADSVKGRFTISRDNEKITVYLQMISLKPEDTAVYYCSARRFRGSYYWGQGTQVTVSS”, the “polyreactivity (PSR sort gate)” value is “high polyreactivity”.

As for “QVQLVESGGGLVQAGGILRLSCAASGRTVHNYVMAWYRQAPWNERELVAAITAGVGSTYYADSVKGRFTISRDNAKNTVYFQMNSLKPEDTAVYYCAARKVWGYTYGYPYYYWGQGTQETVSS”, the “polyreactivity (PSR sort gate)” value is given as “high polyreactivity”.

In the case of “QVQLVESGGGLVQAGGILRLSCAASGSIFGLYAMVWYRQAPGKERELVAAISPRGGSTYYADSVKGRFTISRDNAKNTVYLQMNILKPEDTAVYYCNRDYIRYALGHDYWGQGPQVTVSS”, the “polyreactivity (PSR sort gate)” value is on record as “high polyreactivity”.

“QVQLVESGGGLVQAGGILRLSCAASGSIFRQNPMGWYRKAPGKERELVAAISSGGSTYYADSVKGRFTISRDNAKNNVYLQRNSLKPEDTAVYYCAAYHSFVWGDDYWGQGTQVTVSS”: the “polyreactivity (PSR sort gate)” value was “low polyreactivity”.

For “QVQLVESGGGLVQAGGILRLSCAASGSIFRVYAMGWYRQAPGKERELVAGITSTGTRTYYADSVKGRFTISRDNAKNPVSLQKNSLKPEDTAVYYCAARDTYRKAYYYWGHGTQVTVSS”, the “polyreactivity (PSR sort gate)” value is recorded as “high polyreactivity”.

On to “QVQLVESGGGLVQAGGILRLSCAASGSIFVKYTMGWYRQAPGKERELVAAISFRGGSTYYADSVKGRFTISRDNAKNTVYLQMNSLKPEDTAVYYCNADGGWWPEYYWGQGTQVTVSS”, for which the “polyreactivity (PSR sort gate)” value is recorded as “low polyreactivity”.

Take “QVQLVESGGGLVQAGGILRLSCAASGSIIYVNAMGWYRQAPGKERELVAAISVRGGRTYYADSVKGRFTISRDNAKNSVYLQMISLKPEDTAVYDCAAGWYYYARPRVYNAREYYYWGQGTQVNVSS”: the “polyreactivity (PSR sort gate)” value is reported as “high polyreactivity”.

As to “QVQLVESGGGLVQAGGILRLSCAASGSIVSYYDMGWYRQAPGKERELVAAITYTGGSTYYADSVKGRFTISRDNAKNTVYLQMNSLKPEDTEVYYCAAQWTIYPLFNSWGQGNQVTVSS”, the “polyreactivity (PSR sort gate)” value is on record as “low polyreactivity”.
